# Laboratory results reported in PMC3113324, “AKAP5 and AKAP12 Form Homo-oligomers” (Journal of Molecular Signaling, 2011).
# B1: HA-tagged full-length AKAP12 (1-1782) (natural protein, human, UniProt Q02952 1-1782, looked up)
# chain: MGAGSSTEQRSPEQPPEGSSTPAEPEPSGGGPSAEAAPDTTADPAIAASDPATKLLQKNGQLSTINGVAEQDELSLQEGDLNGQKGALNGQGALNSQEEEEVIVTEVGQRDSEDVSKRDSDKEMATKSAVVHDITDDGQEETPEIIEQIPSSESNLEELTQPTESQANDIGFKKVFKFVGFKFTVKKDKTEKPDTVQLLTVKKDEGEGAAGAGDHKDPSLGAGEAASKESEPKQSTEKPEETLKREQSHAEISPPAESGQAVEECKEEGEEKQEKEPSKSAESPTSPVTSETGSTFKKFFTQGWAGWRKKTSFRKPKEDEVEASEKKKEQEPEKVDTEEDGKAEVASEKLTASEQAHPQEPAESAHEPRLSAEYEKVELPSEEQVSGSQGPSEEKPAPLATEVFDEKIEVHQEEVVAEVHVSTVEERTEEQKTEVEETAGSVPAEELVEMDAEPQEAEPAKELVKLKETCVSGEDPTQGADLSPDEKVLSKPPEGVVSEVEMLSSQERMKVQGSPLKKLFTSTGLKKLSGKKQKGKRGGGDEESGEHTQVPADSPDSQEEQKGESSASSPEEPEEITCLEKGLAEVQQDGEAEEGATSDGEKKREGVTPWASFKKMVTPKKRVRRPSESDKEDELDKVKSATLSSTESTASEMQEEMKGSVEEPKPEEPKRKVDTSVSWEALICVGSSKKRARRGSSSDEEGGPKAMGGDHQKADEAGKDKETGTDGILAGSQEHDPGQGSSSPEQAGSPTEGEGVSTWESFKRLVTPRKKSKSKLEEKSEDSIAGSGVEHSTPDTEPGKEESWVSIKKFIPGRRKKRPDGKQEQAPVEDAGPTGANEDDSDVPAVVPLSEYDAVEREKMEAQQAQKSAEQPEQKAATEVSKELSESQVHMMAAAVADGTRAATIIEERSPSWISASVTEPLEQVEAEAALLTEEVLEREVIAEEEPPTVTEPLPENREARGDTVVSEAELTPEAVTAAETAGPLGAEEGTEASAAEETTEMVSAVSQLTDSPDTTEEATPVQEVEGGVPDIEEQERRTQEVLQAVAEKVKEESQLPGTGGPEDVLQPVQRAEAERPEEQAEASGLKKETDVVLKVDAQEAKTEPFTQGKVVGQTTPESFEKAPQVTESIESSELVTTCQAETLAGVKSQEMVMEQAIPPDSVETPTDSETDGSTPVADFDAPGTTQKDEIVEIHEENEVASGTQSGGTEAEAVPAQKERPPAPSSFVFQEETKEQSKMEDTLEHTDKEVSVETVSILSKTEGTQEADQYADEKTKDVPFFEGLEGSIDTGITVSREKVTEVALKGEGTEEAECKKDDALELQSHAKSPPSPVEREMVVQVEREKTEAEPTHVNEEKLEHETAVTVSEEVSKQLLQTVNVPIIDGAKEVSSLEGSPPPCLGQEEAVCTKIQVQSSEASFTLTAAAEEEKVLGETANILETGETLEPAGAHLVLEEKSSEKNEDFAAHPGEDAVPTGPDCQAKSTPVIVSATTKKGLSSDLEGEKTTSLKWKSDEVDEQVACQEVKVSVAIEDLEPENGILELETKSSKLVQNIIQTAVDQFVRTEETATEMLTSELQTQAHVIKADSQDAGQETEKEGEEPQASAQDETPITSAKEESESTAVGQAHSDISKDMSEASEKTMTVEVEGSTVNDQQLEEVVLPSEEEGGGAGTKSVPEDDGHALLAERIEKSLVEPKEDEKGDDVDDPENQNSALADTDASGGLTKESPDTNGPKQKEKEDAQEVELQEGKVHSESDKAITPQAQEELQKQERESAKSELTES
# notes: AKAP12, human, full length (1-1782); also called HA-AKAP12; HA-tagged AKAP12; source: HEK293, transfected (pcDNA3.1), in whole-cell lysate
# B2: full-length endogenous AKAP12 (natural protein, human (endogenous in HEK293), UniProt Q02952 1-1782, looked up)
# chain: B1 chain
# notes: AKAP12, endogenous in HEK293 cells, detected with anti-AKAP12 antibody; also called native AKAP12; endogenously expressed AKAP12; source: endogenous, HEK293 whole-cell lysate
# Biological target: the molecule itself
# Test: SDS-PAGE (SDS-resistant oligomers); whole-cell lysates of HEK293 cells on SDS-PAGE without urea; immunoblot with anti-HA or anti-AKAP12; cells also treated with isoproterenol (10 uM, 0, 5, 30 min), KT5720, PD98059 or Rolipram (45 min)
row,Protein,stoichiometry N
1,B1,2
2,B2,2
